The assay has as its target HAdV-52 long fiber knob (human adenovirus type 52 (HAdV-52)). In words: SPR.

B1: Recombinant human CAR (CXADR Fc chimera; full length extracellular D1D2 domain) (Fc fusion)
chain: LSITTPEEMIEKAKGETAYLPCKFTLSPEDQGPLDIEWLISPADNQKVDQVIILYSGDKIYDDYYPDLKGRVHFTSNDLKSGDASINVTNLQLSDIGTYQCKVKKAPGVANKKIHLVVLVKPSGARCYVDGSEEIGSDFKIKCEPKEGSLPLQYEWQKLSDSQKMPTSWLAEMTSSVISVKNASSEYSGTYSCTVRNRVGSDQCLLRLNVVPPSNKAG
In turn, B1 had a koff of 0.00221 s⁻¹.

Source of the values: article PMC4335501 (2015).
